The values below come from article PMC6204036, “Myostatin and activin blockade by engineered follistatin results in hypertrophy and improves dystrophic pathology in mdx mouse more than myostatin blockade alone” (Skeletal Muscle, 2018).

A word on the Kd: it is the concentration at which binding is half-saturated. The low end stands for higher affinity, the high end for lower affinity.

In the assay the target is T1, FS-EEE-mFc (human, UniProt P19883 30-344, K76 mutagenized to glutamic acid | K81 mutagenized to glutamic acid | K82 …).
T1 construct: follistatin FS315, human, with K76, K81 and K82 changed to glutamic acid; FS315 cDNA (Clontech) cloned in frame to murine IgG1 Fc cDNA; also called engineered follistatin; FST-EEE-mFc
T1 sequence (P19883 other isoform, or with tags, fused parts or gaps with the stated changes): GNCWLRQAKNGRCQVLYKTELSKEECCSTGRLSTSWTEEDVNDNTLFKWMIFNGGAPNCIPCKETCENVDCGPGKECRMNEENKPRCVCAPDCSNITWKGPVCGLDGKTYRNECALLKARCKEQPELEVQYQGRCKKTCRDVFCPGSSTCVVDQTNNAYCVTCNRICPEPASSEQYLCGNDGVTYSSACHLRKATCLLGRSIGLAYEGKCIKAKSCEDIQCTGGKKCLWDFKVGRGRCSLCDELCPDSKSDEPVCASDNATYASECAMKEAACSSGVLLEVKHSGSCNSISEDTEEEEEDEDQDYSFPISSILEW
The assay is described as follows: SPR; surface plasmon resonance method as in ref. 48; which partner was immobilised and the conditions are not told. Conditions: both partners purified. (SPR reads the build-up and loss of mass on a sensor chip optically.)

B1: activin A (ligand, UniProt P08476 311-426, looked up)
chain: GLECDGKVNICCKKQFFVSFKDIGWNDWIIAPSGYHANYCEGECPSHIAGTSGSSLSFHSTVINHYRMRGHSPFANLKSCCVPTKLRPMSMLYYDDGQNIIKKDIQNMIVEECGCS
notes: activin A (inhibin beta A chain), the ligand used in SPR
The molecule B1 displayed a Kd of 6.1 pM.
